Measurements published in PMC10786891, “Massively parallel profiling of RNA-targeting CRISPR-Cas13d”.
Substitutions are numbered along the chain they refer to. Numbers in names are those of the source.

B1: target 1 U3A,U11A (mixed)
RNA 1: CACCCGUGCAAAAAUGCAGGGGUCUAAAACUGAGCGGAUAACCUCUCUAUGG
RNA 2: GGGAAUGGAUCCACAUCUACGAAUUCGUACCAUAGAGAGGAUAUCCGCACACCGAGAUCGGAAGAGCACACGU
B2: target 1 insU 3' of 18,insU 3' of 15 (mixed)
RNA 1: B1 RNA 1
RNA 2: GGGAAUGGAUCCACAUCUACGAAUUCGUACCAUAUGAGUAGGUUAUCCGCUCACCGAGAUCGGAAGAGCACACGU
B3: target 1 C7A,U11A (mixed)
RNA 1: B1 RNA 1
RNA 2: B1 RNA 2 with C45A, A49U
B4: target 1 insC 3' of 13,insA 3' of 10 (mixed)
RNA 1: B1 RNA 1
RNA 2: B2 RNA 2 with U35G, G36A, A37G, G38A, U39G, A40C, G42U, U44A
B5: target 1 insA 3' of 19,insC 3' of 12 (mixed)
RNA 1: B1 RNA 1
RNA 2: B2 RNA 2 with U35A, U39A, A40G, G42C
B6: target 1 insU 3' of 22,insG 3' of 20 (mixed)
RNA 1: B1 RNA 1
RNA 2: B2 RNA 2 with C31U, A32C, U33A, A34G, G36A, A37G, G38A, U39G
B7: target 1 G12U,G17U (mixed)
RNA 1: B1 RNA 1
RNA 2: B1 RNA 2 with G35U, G40U, A41U, A49U
B8: target 1 G5C,G12U (mixed)
RNA 1: B1 RNA 1
RNA 2: B1 RNA 2 with G40U, A41U, G47C, A49U
B9: target 1 insU 3' of 14,insG 3' of 7 (mixed)
RNA 1: B1 RNA 1
RNA 2: GGGAAUGGAUCCACAUCUACGAAUUCGUACCAUAGAGAUGGUUAUCGCGCUCACCGAGAUCGGAAGAGCACACGU
B10: target 1 G5A,U11C (mixed)
RNA 1: B1 RNA 1
RNA 2: B1 RNA 2 with A41C, G47A, A49U
B11: target 1 insC 3' of 13,insC 3' of 12 (mixed)
RNA 1: B1 RNA 1
RNA 2: B9 RNA 2 with U39G, G40C, U42C, A44U, U45A, C46U, G47C
B12: target 1 U3C (mixed)
RNA 1: B1 RNA 1
RNA 2: B1 RNA 2 with A41U, A49C
B13: target 1 insG 3' of 4,insU 3' of 4 (mixed)
RNA 1: B1 RNA 1
RNA 2: B9 RNA 2 with U39G, G41U, U43A, A44U, U45C, C50U
B14: target 1 complement block 3-11 (mixed)
RNA 1: B1 RNA 1
RNA 2: B1 RNA 2 with U42A, A43U, U44A, C45G, C46G, G47C, C48G
B15: target 1 C6U,A20C (mixed)
RNA 1: B1 RNA 1
RNA 2: B1 RNA 2 with A32C, A41U, C46U, A49U
B16: target 1 G15A,A18C (mixed)
RNA 1: B1 RNA 1
RNA 2: B1 RNA 2 with A34C, G37A, A41U, A49U
B17: target 1 C4A,U10G (mixed)
RNA 1: B1 RNA 1
RNA 2: B1 RNA 2 with A41U, U42G, C48A, A49U
B18: target 1 insC 3' of 17,insG 3' of 16 (mixed)
RNA 1: B1 RNA 1
RNA 2: B2 RNA 2 with U35G, G36C, U39G
B19: target 1 insA 3' of 11,insU 3' of 7 (mixed)
RNA 1: B1 RNA 1
RNA 2: B9 RNA 2 with U39G, G41U, U42A, G47U
B20: target 1 insU 3' of 12,insC 3' of 9 (mixed)
RNA 1: B1 RNA 1
RNA 2: B9 RNA 2 with U39G, G41U, U45C, C46U, G47C
B21: target 1 insU 3' of 17,insC 3' of 9 (mixed)
RNA 1: B1 RNA 1
RNA 2: B9 RNA 2 with A36U, G37A, A38G, U39A, U45C, C46U, G47C
B22: target 1 insU 3' of 1 (mixed)
RNA 1: B1 RNA 1
RNA 2: GGGAAUGGAUCCACAUCUACGAAUUCGUACCAUAGAGAGGUUAUCCGCUCAUCCGAGAUCGGAAGAGCACACGU
B23: target 1 insG 3' of 9,insC 3' of 9 (mixed)
RNA 1: B1 RNA 1
RNA 2: B9 RNA 2 with U39G, G41U, U43A, A44G, U45C, C46U, G47C
B24: target 1 insU 3' of 9,insC 3' of 8 (mixed)
RNA 1: B1 RNA 1
RNA 2: B9 RNA 2 with U39G, G41U, U43A, A44U, G47C
B25: target 1 insA 3' of 7,insA 3' of 4 (mixed)
RNA 1: B1 RNA 1
RNA 2: GGGAAUGGAUCCACAUCUACGAAUUCGUACCAUAGAGAGGUUAUCACGCAUCACCGAGAUCGGAAGAGCACACGU
B26: target 1 insC 3' of 8,insG 3' of 7 (mixed)
RNA 1: B1 RNA 1
RNA 2: B25 RNA 2 with A46C, C47G, G48C, C49G, A50C
B27: target 1 insC 3' of 15,insU 3' of 15 (mixed)
RNA 1: B1 RNA 1
RNA 2: B2 RNA 2 with U35G, G36A, A37G, G38C
B28: target 1 U19A,C21U (mixed)
RNA 1: B1 RNA 1
RNA 2: B1 RNA 2 with C31U, U33A, A41U, A49U
B29: target 1 A9U,U11C (mixed)
RNA 1: B1 RNA 1
RNA 2: B1 RNA 2 with A41C, A43U, A49U
B30: target 1 C2G,G13A (mixed)
RNA 1: B1 RNA 1
RNA 2: B1 RNA 2 with G39A, A41U, A49U, C50G

What follows are binders tested against T1, EsCas13d, nuclease-dead (Eubacterium siraeum, UniProt B0MS50, R295A;H300A;R849A;H854A) (assay: crRNA (strand 1, pre-loaded); Mg2+; 40 mM Tris-HCl pH 7.5, 150 mM NaCl, 6 mM MgCl2, 1 mM DTT, 0.1% Tween-20, 0.2 mg/ml BSA; 25 C; 10 min per concentration, then washed). Conditions: tags: His6-TwinStrep-SUMO cleaved; N-terminal SNAP kept (SNAP-Surface 488); label: 3' end held by stalled T7 RNA polymerase.
T1 sequence: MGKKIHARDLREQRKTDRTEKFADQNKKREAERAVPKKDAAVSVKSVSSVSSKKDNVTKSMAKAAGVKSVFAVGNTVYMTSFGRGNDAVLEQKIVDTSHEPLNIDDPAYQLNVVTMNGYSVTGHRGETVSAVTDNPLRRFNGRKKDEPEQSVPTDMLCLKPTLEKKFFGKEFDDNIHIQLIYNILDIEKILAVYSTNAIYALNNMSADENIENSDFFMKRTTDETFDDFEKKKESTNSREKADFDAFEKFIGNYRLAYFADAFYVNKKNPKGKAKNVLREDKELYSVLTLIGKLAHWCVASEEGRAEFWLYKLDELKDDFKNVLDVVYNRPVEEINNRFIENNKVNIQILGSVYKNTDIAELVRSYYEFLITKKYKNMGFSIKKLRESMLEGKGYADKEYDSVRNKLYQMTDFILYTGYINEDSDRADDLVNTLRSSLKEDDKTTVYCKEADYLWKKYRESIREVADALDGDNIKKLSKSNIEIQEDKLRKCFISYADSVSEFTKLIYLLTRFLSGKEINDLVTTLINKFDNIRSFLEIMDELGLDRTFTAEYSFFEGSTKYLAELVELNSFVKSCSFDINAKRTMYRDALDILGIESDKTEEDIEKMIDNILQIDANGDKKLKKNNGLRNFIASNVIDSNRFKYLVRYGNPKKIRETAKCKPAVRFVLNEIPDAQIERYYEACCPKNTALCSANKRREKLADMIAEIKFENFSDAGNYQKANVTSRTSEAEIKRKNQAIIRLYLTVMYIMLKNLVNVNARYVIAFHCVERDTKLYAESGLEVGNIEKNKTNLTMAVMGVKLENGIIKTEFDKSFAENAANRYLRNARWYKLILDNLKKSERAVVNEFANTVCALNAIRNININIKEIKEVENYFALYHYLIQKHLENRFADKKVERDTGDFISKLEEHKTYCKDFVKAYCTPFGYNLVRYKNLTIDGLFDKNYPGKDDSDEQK

Binder	Kd
B1	12.7 ± 0.7 nM
B2	50 ± 12 nM
B3	17.9 ± 1.3 nM
B4	12.7 ± 0.6 nM
B5	70 ± 31 nM
B6	78 ± 24 nM
B7	31.3 ± 3.5 nM
B8	8.7 ± 0.6 nM
B9	29.3 ± 1.7 nM
B10	34 ± 4 nM
B11	17.7 ± 1.2 nM
B12	26.3 ± 3.2 nM
B13	7 ± 0.4 nM
B14	13 ± 0.6 nM
B15	100 ± 50 nM
B16	81 ± 15 nM
B17	10.1 ± 0.9 nM
B18	64 ± 6 nM
B19	48 ± 5 nM
B20	11.6 ± 0.6 nM
B21	25.1 ± 1.6 nM
B22	9.6 ± 0.4 nM
B23	17.2 ± 0.7 nM
B24	42 ± 10 nM
B25	4.53 ± 0.23 nM
B26	10.3 ± 0.9 nM
B27	23.3 ± 1.1 nM
B28	10.3 ± 1 nM
B29	13 ± 1 nM
B30	5.4 ± 0.6 nM
